B1: Mitochondrial Rho GTPase 1 (Homo sapiens), Q8IXI2 (parent)
chain: MKKDVRILLVGEPRVGKTSLIMSLVSEEFPEEVPPRAEEITIPADVTPERVPTHIVDYSEAEQSDEQLHQEISQANVICIVYAVNNKHSIDKVTSRWIPLINERTDKDSRLPLILVGNKSDLVEYSSMETILPIMNQYTEIETCVECSAKNLKNISELFYYAQKAVLHPTGPLYCPEEKEMKPACIKALTRIFKISDQDNDGTLNDAELNFFQRICFNTPLAPQALEDVKNVVRKHISDGVADSGLTLKGFLFLHTLFIQRGRHETTWTVLRRFGYDDDLDLTPEYLFPLLKIPPDCTTELNHHAYLFLQSTFDKHDLDRDCALSPDELKDLFKVFPYIPWGPDVNNTVCTNERGWITYQGFLSQWTLTTYLDVQRCLEYLGYLGYSILTEQESQASAVTVTRDKKIDLQKKQTQRNVFRCNVIGVKNCGKSGVLQALLGRNLMRQKKIREDHKSYYAINTVYVYGQEKYLLLHDISESEFLTEAEIICDVVCLVYDVSNPKSFEYCARIFKQHFMDSRIPCLIVAAKSDLHEVKQEYSISPTDFCRKHKMPPPQAFTCNTADAPSKDIFVKLTTMAMYPHVTQADLKSSTFWLRASFGATVFAVLGFAMYKALLKQR
partner: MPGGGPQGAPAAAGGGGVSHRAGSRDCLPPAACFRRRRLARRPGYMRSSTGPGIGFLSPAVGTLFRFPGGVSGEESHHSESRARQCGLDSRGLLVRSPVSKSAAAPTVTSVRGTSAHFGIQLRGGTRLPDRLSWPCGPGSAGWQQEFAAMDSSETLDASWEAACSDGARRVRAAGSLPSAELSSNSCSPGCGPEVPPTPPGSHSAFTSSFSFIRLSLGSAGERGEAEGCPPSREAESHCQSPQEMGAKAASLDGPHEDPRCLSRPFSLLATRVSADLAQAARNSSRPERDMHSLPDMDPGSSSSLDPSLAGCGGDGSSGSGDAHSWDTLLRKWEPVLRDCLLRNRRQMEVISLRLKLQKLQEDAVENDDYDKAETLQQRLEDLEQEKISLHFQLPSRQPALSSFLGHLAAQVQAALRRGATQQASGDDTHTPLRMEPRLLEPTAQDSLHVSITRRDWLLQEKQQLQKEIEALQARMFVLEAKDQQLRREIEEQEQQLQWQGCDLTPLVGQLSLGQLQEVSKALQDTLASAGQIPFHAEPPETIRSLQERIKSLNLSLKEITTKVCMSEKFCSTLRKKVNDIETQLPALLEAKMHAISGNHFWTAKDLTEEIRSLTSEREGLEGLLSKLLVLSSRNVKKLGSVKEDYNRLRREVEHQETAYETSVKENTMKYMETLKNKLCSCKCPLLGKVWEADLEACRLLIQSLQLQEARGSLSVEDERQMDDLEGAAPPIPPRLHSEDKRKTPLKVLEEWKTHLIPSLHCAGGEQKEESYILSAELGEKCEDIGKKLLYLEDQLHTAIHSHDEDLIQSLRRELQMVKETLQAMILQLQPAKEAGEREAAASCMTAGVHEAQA

Variants of: B1
Conditions: with disc1_human DISC1, Q9NRI5

effect of a mutation on the interaction	Variant
with no effect	T18N
increasing interaction	P13V

From IntAct's records for PubMed 32637409
